Data on seven proteins can be found in patent EP2843044A1, “Improved variant of D-psicose 3-epimerase and uses thereof” (Roquette Frères, priority 2013, dated 2015).

Substrate in the series: O=C(CO)[C@@H](O)[C@H](O)[C@H](O)CO
In words: Determination of kinetic parameters of DPEase (HPLC assay of D-psicose formed). In kind it is biochemical, Clostridium cellulolyticum. The note with it: other: 50 mM Tris-HCl buffer (pH 8.0), 0.1mM Co^2+, 5-200mM substrate, 55 °C. The procedure: Kinetic parameters of DPEase variants were determined in 50 mM Tris-HCl buffer (pH 8.0) containing 0.1mM Co^2+ and 5-200mM substrate for reaction at 55 °C. The enzyme reactions were stopped after 10 min by boiling, and the amount of D-psicose was determined by the HPLC assay. Kinetic parameters, such as the Michaelis-Menten constant (Km) and turnover number (kcat) values for substrates, were obtained using the Lineweaver-Burk equation and quantification of enzyme concentration.
The concentrations of D-fructose and D-psicose were analyzed by HPLC equipped with a refractive index detector and a Ca^2+-carbohydrate column (Waters Sugar-Pak 1, Waters Corp., Milford, MA), which was eluted with water at 85 °C and 0.4 mL/min. Protein concentration was determined according to the method of Bradford using bovine serum albumin as a standard. SDS-PAGE was carried out according to the method of Laemmli. Gels (12% w/v polyacrylamide) were stained with Coomassie Brilliant Blue and destained with an aqueous mixture of 10% (v/v) methanol/10% (v/v) acetic acid. Table 1: Enzyme properties and kinetic parameters of the wild-type and mutant enzymes of DPEase from C. cellulolyticum for substrate D-psicose

B1: D-psicose 3-epimerase (DPEase) from Clostridium cellulolyticum, variant G211S, SEQ ID No 4 (Ruminiclostridium cellulolyticum H10; G211S) (protein)
chain: MKHGIYYAYWEQEWEADYKYYIEKVAKLGFDILEIAASPLPFYSDIQINELKACAHGNGITLTVGHGPSAEQNLSSPDPDIRKNAKAFYTDLLKRLYKLDVHLIGGALYSYWPIDYTKTIDKKGDWERSVESVREVAKVAEACGVDFCLEVLNRFENYLINTAQEGVDFVKQVDHNNVKVMLDTFHMNIEEDSIGGAIRTAGSYLGHLHTSECNRKVPGRGRIPWVEIGEALADIGYNGSVVMEPFVRMGGTVGSNIKVWRDISNGADEKMLDREAQAALDFSRYVLECHKHS
notes: made in house; host or cells: Bacillus subtilis WB600 (pMA5)
B1: the kcat/Km was 150.6 mM^-1 min ^-1.

B2: D-psicose 3-epimerase (DPEase) from Clostridium cellulolyticum, variant G211W (Ruminiclostridium cellulolyticum H10; G211W) (protein)
chain: MKHGIYYAYWEQEWEADYKYYIEKVAKLGFDILEIAASPLPFYSDIQINELKACAHGNGITLTVGHGPSAEQNLSSPDPDIRKNAKAFYTDLLKRLYKLDVHLIGGALYSYWPIDYTKTIDKKGDWERSVESVREVAKVAEACGVDFCLEVLNRFENYLINTAQEGVDFVKQVDHNNVKVMLDTFHMNIEEDSIGGAIRTAGSYLGHLHTWECNRKVPGRGRIPWVEIGEALADIGYNGSVVMEPFVRMGGTVGSNIKVWRDISNGADEKMLDREAQAALDFSRYVLECHKHS
notes: as for B1
As to B2, the kcat/Km worked out at 68.1 mM^-1 min ^-1.

B3: D-psicose 3-epimerase (DPEase) from Clostridium cellulolyticum, variant G211L (Ruminiclostridium cellulolyticum H10; G211L) (protein)
chain: MKHGIYYAYWEQEWEADYKYYIEKVAKLGFDILEIAASPLPFYSDIQINELKACAHGNGITLTVGHGPSAEQNLSSPDPDIRKNAKAFYTDLLKRLYKLDVHLIGGALYSYWPIDYTKTIDKKGDWERSVESVREVAKVAEACGVDFCLEVLNRFENYLINTAQEGVDFVKQVDHNNVKVMLDTFHMNIEEDSIGGAIRTAGSYLGHLHTLECNRKVPGRGRIPWVEIGEALADIGYNGSVVMEPFVRMGGTVGSNIKVWRDISNGADEKMLDREAQAALDFSRYVLECHKHS
notes: as for B1
Turning to B3, the kcat/Km turned out to be 73.2 mM^-1 min ^-1.

B4: D-psicose 3-epimerase (DPEase) from Clostridium cellulolyticum, variant G211A (Ruminiclostridium cellulolyticum H10; G211A) (protein)
chain: MKHGIYYAYWEQEWEADYKYYIEKVAKLGFDILEIAASPLPFYSDIQINELKACAHGNGITLTVGHGPSAEQNLSSPDPDIRKNAKAFYTDLLKRLYKLDVHLIGGALYSYWPIDYTKTIDKKGDWERSVESVREVAKVAEACGVDFCLEVLNRFENYLINTAQEGVDFVKQVDHNNVKVMLDTFHMNIEEDSIGGAIRTAGSYLGHLHTAECNRKVPGRGRIPWVEIGEALADIGYNGSVVMEPFVRMGGTVGSNIKVWRDISNGADEKMLDREAQAALDFSRYVLECHKHS
notes: as for B1
For the protein B4, the kcat/Km stood at 9.8 mM^-1 min ^-1.

B5: D-psicose 3-epimerase (DPEase) from Clostridium cellulolyticum, variant G211R (Ruminiclostridium cellulolyticum H10; G211R) (protein)
chain: MKHGIYYAYWEQEWEADYKYYIEKVAKLGFDILEIAASPLPFYSDIQINELKACAHGNGITLTVGHGPSAEQNLSSPDPDIRKNAKAFYTDLLKRLYKLDVHLIGGALYSYWPIDYTKTIDKKGDWERSVESVREVAKVAEACGVDFCLEVLNRFENYLINTAQEGVDFVKQVDHNNVKVMLDTFHMNIEEDSIGGAIRTAGSYLGHLHTRECNRKVPGRGRIPWVEIGEALADIGYNGSVVMEPFVRMGGTVGSNIKVWRDISNGADEKMLDREAQAALDFSRYVLECHKHS
notes: made in house
Regarding B5, the kcat/Km is given as 26.5 mM^-1 min ^-1.

B6: D-psicose 3-epimerase (DPEase) from Clostridium cellulolyticum, wild type, SEQ ID No 2 (Ruminiclostridium cellulolyticum H10) (protein)
chain: MKHGIYYAYWEQEWEADYKYYIEKVAKLGFDILEIAASPLPFYSDIQINELKACAHGNGITLTVGHGPSAEQNLSSPDPDIRKNAKAFYTDLLKRLYKLDVHLIGGALYSYWPIDYTKTIDKKGDWERSVESVREVAKVAEACGVDFCLEVLNRFENYLINTAQEGVDFVKQVDHNNVKVMLDTFHMNIEEDSIGGAIRTAGSYLGHLHTGECNRKVPGRGRIPWVEIGEALADIGYNGSVVMEPFVRMGGTVGSNIKVWRDISNGADEKMLDREAQAALDFSRYVLECHKHS
notes: as for B1
As for B6, the kcat/Km was 62.7 mM^-1 min ^-1.

B7: D-psicose 3-epimerase (DPEase) from Clostridium cellulolyticum, variant G211D (Ruminiclostridium cellulolyticum H10; G211D) (protein)
chain: MKHGIYYAYWEQEWEADYKYYIEKVAKLGFDILEIAASPLPFYSDIQINELKACAHGNGITLTVGHGPSAEQNLSSPDPDIRKNAKAFYTDLLKRLYKLDVHLIGGALYSYWPIDYTKTIDKKGDWERSVESVREVAKVAEACGVDFCLEVLNRFENYLINTAQEGVDFVKQVDHNNVKVMLDTFHMNIEEDSIGGAIRTAGSYLGHLHTDECNRKVPGRGRIPWVEIGEALADIGYNGSVVMEPFVRMGGTVGSNIKVWRDISNGADEKMLDREAQAALDFSRYVLECHKHS
notes: as for B1
Turning to B7, the kcat/Km is on record as 86.7 mM^-1 min ^-1.
